Patent US20170233488A1 (University of California, published 2017)

Target: T1, ALCAM/MEMD/CD166 (human, UniProt Q13740 28-583)
T1 construct: whole, on cells; Endogenous antigen on Du-145 prostate cancer cells (FACS) and in lysates of surface-biotinylated Du-145 cells (IP and Western blot)
T1 sequence (looked up): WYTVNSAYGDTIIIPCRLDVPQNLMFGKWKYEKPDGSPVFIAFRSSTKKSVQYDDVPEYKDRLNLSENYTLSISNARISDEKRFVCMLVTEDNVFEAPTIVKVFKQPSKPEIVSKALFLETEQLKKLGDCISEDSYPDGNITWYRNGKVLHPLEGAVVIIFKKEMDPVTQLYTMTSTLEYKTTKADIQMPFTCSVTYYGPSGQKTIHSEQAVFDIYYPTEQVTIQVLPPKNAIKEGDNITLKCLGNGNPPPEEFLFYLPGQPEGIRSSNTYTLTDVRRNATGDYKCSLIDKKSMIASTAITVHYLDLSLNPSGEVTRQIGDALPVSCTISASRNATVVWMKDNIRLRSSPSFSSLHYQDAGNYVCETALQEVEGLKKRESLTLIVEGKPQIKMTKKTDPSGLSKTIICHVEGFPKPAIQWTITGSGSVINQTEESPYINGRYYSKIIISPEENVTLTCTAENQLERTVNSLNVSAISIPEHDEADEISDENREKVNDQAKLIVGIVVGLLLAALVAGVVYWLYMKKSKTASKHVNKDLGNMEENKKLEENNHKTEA
Assay: FACS on Du-145 cells, equilibrium binding at 4 C overnight, apparent KD by curve fitting of MFI
Experimental: Monodispersed DU-145 cells were incubated with varying concentrations of IgG1s at 4° C. overnight to allow equilibrium binding. After washing, bound human IgG1 s were detected by R-phycoerythrin-conjugated goat anti-human secondary antibody and analyzed by FACS. Mean fluorescence intensity (MFI) values were plotted and the KD was determined by curve fitting using GraphPad (GraphPad Software, San Diego, Calif.).

B1: anti-ALCAM IgG1 (585II41.1, also known as H3) (antibody, V domains shown)
VH: QVQLVESGGGLVQPGGSLRLSCAASGFTFSSYAMSWVRQAPGKGLEWVSAISGSGGSTYYADSVKGRFTISRDNSKDTLYLQMNSLRAEDTAVYYCASRSLLDYWGQGTLVTVSS
VL: NFMLTQDPAVSVALGQTVRITCQGDSLRSYYASWYQQKPGQAPLLVIYGKNNRPSGIPDRFSGSSSGNTASLTITGAQAEDEADYYCNSRDSSGNPVFGGGTKVTVL
notes: also called H3 IgG; H3 IgG1
  Kd: 4.4 pM
